Measurements published in the domain aggregation screens of Martell et al. (2025).

Test: soluble fraction after stress (log2 fold change); higher = more stays soluble; pooled small domains, quantitative proteomics
Conditions: stress: 50 degC
Procedure, shortened: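 The measure of aggregation propensity here is the base-two logarithm of the fold change in the soluble amount of each protein after stress. A higher value means more of that protein stays in solution. Stress was applied at 50°C to pooled libraries of small protein domains, read out by high-throughput quantitative proteomics.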

| Sequence | soluble fraction (log2) |
| --- | --- |
| HMTLGARTLAAIQSLPKVQQAVFTMKHFEGLKYREISQITGTSEGALKASYHIALEKIKAFLREK | -2.53 |
| HMSESLRDLVLSLIPEDGSTIGNRALITRLREDLPDLTDEDYHEVRDQLIAEGVLAKGRGQGGSVARANG | 0.205 |
| HMIHDSAESVVFPFGKYKGYTLAHVIREHPHYTYWIRDNADFSPLWREAVSLALQNRDIGHLNLPHVK | -0.416 |
| HMDTITMAGERYAVSDLEKVSGDIFEKAFGFEIDPKTADAKDVLPTMPKSDVDLFKKLSGIKP | 0.19 |
| HMVQMKIRAYELEPNDFFIKQNMTYRVMRIQNGMIYAKHLLNSTPITFGAKSMEFVLWTGKYS | -2.36 |
| HMSALTELPVKTVNGKKYHYYVVKQHETVYALSKRFGITPEQLIKYNPSAEDGLQIDQELLFPATEI | 0.161 |
| HMELNGVSETAKSVYSIILNNSSTVDDIVIKTKLPAAKVMQALTELELNDAVERKSGGVYALP | 0.13 |
| HMGPLTMGQRIVRLRTQAGLSQDALAEQLGVSRQSVSKWETDGSVPDLDRLVKLSKVFGVTLDELVKG | -0.024 |
| HMTHPQVEAYLDDLARMLADIDPGERDDILASVREHLDAEIAAGHGSDAVVNATLLRLGPPEQVAAAARTN | -0.0824 |
| HMEAEVIKTASDMADRNGLHNVSLKAIAENLGIRTPSLYNHIGSLDELLREIAHSGMRTMNE | 0.02 |
| HMSGDKKLQMNLILEFAQQNESFRTKDIEELLQIRSSRARKLISDLVTEGRLEALGENRNRRYQLI | -0.985 |
| HMADLNFHQQIRSLPPEQQEILLLRFGQELTLRQIAQVTGVPLRTVQSRLRAALKKLKSQLEKEE | -0.39 |
| HMETGELQQILEDVFSKNIGIVQDKREAAFSILMGMIMAKSRGRADGALVSTLLKKKLTEFLATSDQVR | 0.0929 |
| HMRKKIIAQTLEEIRKSKGYSQKQVAAFIKVKPTTYNTYESGRTEPPAEILVRLSYLYRTPVDTLVQRDR | -2.07 |
| HMQMEISQRIKLERQTLKWTQEELADKIFVSKRTISNWETGRTVPDIESVLRLAKVFHVSLEDLLL | -4.57 |
| HMVLPELRLQGLPTAVLRLINRATALADDYRRLMEIAEDGRIDEWEAPEFERISENIQRVIAAGFEVL | 0.0167 |
| HMGWVMLVIMSRGASEAQINAVVEKIRAAGLTEHLSKGIERTIIGAIGEERKLEPEVFELLPGVEQALHIV | -0.342 |
| HMEQSLNTYSIRTVKESLFLAETKNLNKIEKLVEGIEGRLTLSEALVLFSDKLNAMSVLSHVNANT | -0.148 |
| HMAIGERIRFLRTLRRMTQKELGLAAGFPEKNASIRMAQYENGTRTPKAELTAVLAEILKVSPQALTV | -1.2 |
| HMPPALTELLSVRTNASGTIDYLLPDRSAGLRVENGSKYSGMVPDSIYRLVAIYEIKDAKEPSAYIYTI | -0.00921 |
| HMDGEFINLKNRAGTEIEARILNYQNGQVKLERKDGVTFVVSISMFDAKSVIAINHKIAEIIDT | -1.37 |
| HMSAAELFEERQRQYLRGRKSTKNIADNHGTIILRAGETITDQAIDKAKVAGKLVELVMNNE | 0.142 |
| HMGMMTLGQRIAQYRKAMGISQEELGGRLGVSRQAVSKWETDAAAPDMENLLALAREFGVSVAELTETP | -0.0446 |
| HMKPGNFILDLLRTYGQKGTSAQNLMSSSRMFNFSENLIRVTLSRLAARGLIENFERGHYRLAE | -0.333 |
| HMDEVHYLADKERGTTWEEILIHADRDIKFLSLSATINNKNEFLEWLVSLRGTTSLIHSSTRPIPLEI | 0.218 |
| HMLAFDKDDSGAVAEIILVLGRYWMDFSHKKYPAAEGVALRHKGLSHIFTVLRPYLSTPASELIGERLRR | -0.409 |
| HMRMTKQRQAVLDELTRVTDFRSAQQIFEDLHSQGHRVGLATIYRSLQGLAEDGSVDTLRSSDGESLY | -0.0884 |
| HMPERLTYVHPDGAEPMRADKALAAFLSGRISRSRLLGSFSAGKVMAGGKPVEKKLLLRAGDALEVELPEP | 0.139 |

| Sequence | soluble fraction (log2) |
| --- | --- |
| HMTRNEFMTALRKRLSHLPAEEQDAALKYYEEYFDEAESEEEAARQLGSPDAIADRILADYGAG | 0.0132 |
| HMLKLTDRQKVILSILMSDGEKTASWIASQLGVGLRSVQLDLSYLRNNGFIKKASKSTHSAWIVLKK | -2.5 |
| HMTVGEKIQKYRKDLDLSQEELGQKLLVSRQTISLWEKDQTVPTIDNLIRLREIFGVSVDEILGF | -0.409 |
| HMRTKEGLASQLEKIPGIGPVKRKALLKKFGSIDAIAAASKEELMLTDGITSSLADAIRDYF | 0.00122 |
| HMEAVIENAAIIKQNSGGYAVRATVNGVDLGMKPVERATALLYFSLTDKLEKDRLLSHTLQKTYGDLSA | -0.254 |
| HMKSDEGEIKKIVEEIISKNASVVEDYKKGKEVALQFLVGQGMKATKGSANPELLKKIILENI | 0.506 |
| HMAENTIPSVIGKTLSDATFLLESYGYERGGVSEEYSEMPKGVVIRQSPQAGSSADPGTKVNLVVSLGEEI | 0.174 |
| HMGSATAPDLKGLTYEQAQTKAEDAGYNIEKGEDVYDNDVEKGKVASQDPEAGAEAKEGSVITVNISK | -0.0349 |
| HMATEPLQPRVEVLGSTLATTNGARIVGVYDMSGREVSATQLSKGVYIVKVTNGSVTATQKVFI | 0.112 |
| HMEQISIETRIEQLLARLSETEASGFEELFADTSSRADLITTFLALLEMIRLKLVRVFQDGSFGPIRIYKR | -0.27 |
| HMIPKDKQAWIALTYIYGVGRTTSMEILKKAQVGEEIRMKDLTEEEVTRIRNIIDKEYEVEGDLRRN | -0.292 |
| HMDPDDEILINIMTKLLTEKQIIIKNKEIFNFLLKRINRTYEEVYNLINKMDKLSLEKKKQLTIPSIKEL | -1.21 |
| HMGNHRNMSAEEEAAILAPFKARAEAGELVEISEIAKAYQSAVDHPISRGQIYFVLHRHGWRKV | -0.926 |
| HMGEPTLTIRVVSYNPQSGEMVVVARDPLSGRYALATLNVRTGAGQMIGPQGELLPIENFALGS | -0.985 |
| HMVERQVTVPNLTGLGVADAQRLAQSMELDIEVLGEQESTDARPGAVLQQTPGAGTRAAAGSVVSVLV | 0.0752 |
| HMLPGLGPIERAQFMLQAIPGISPTRSAALIDKFGSIAGIAQASIKDIQTIEGIGKKTATTLYEVLNAG | -0.341 |
| HMDFSYTVGDIDEPIDSRGNSVIMLRKLAWGSNAEKLEIRRWIIDIDSERANKGVTFLTEEGPHNLVRV | 0.128 |
| HMTKQRSAIMNLLAERNTPLTAEEIGEAIAPSYPKLALSTVYRNLELFTNAGLLEKSFFQDGITRYSLTK | -0.429 |
| HMRQFEPVEGYNPYADKNELHGYEYWGAKFADSRSPEETAWIKQQIDDENEDRRFISEAGLA | -0.0012 |
| HMLVATFGPTTGWEGREIIWDVDRFILVGHGAVPAAGVLDYDRRGQLIWAQPELRAWVVEVDRWETG | -1.97 |
| HMRLHSSGEDYLKAIFILEAQHSSVRSVEVAEYMNVSKASVSHAVALLKKNGFLKMNQDYDLTER | 0.0124 |
| HMSHLTKKQEEVLLFIRDYYEEEGRSPSYSDIQHHFGLKSKSSVQDYIGYLKKAGFLQKSVGSRAIELV | -2.05 |
| HMTPTVEAAKEEVLRVLASAAPRGLTRTELEAEVSFRRTKLRDTLVELERIGRIDSVGRRGNATTYRLIG | -0.615 |
| HMQTGYHVRITASTLNVRRDHSASSAVATQVRRGEVYTIVDEYNNGGTLWGKLKSGAGWIALKYTQS | -1.81 |
| HMDVQEILGALSPDEKAAIGQLTSGEKHIDQIIAATRLPAARITSALTLLQIKGYVRALPGKRFSLTEKQ | -0.0961 |
| HMIVVTSPQVTDERIAEIVAFIEKHGVQAHVSRGTDRTVIGIIGKADPVLAEHLRSMQGVENVIKIS | -0.0652 |
| HMGEDSEPVQVPDVTGQPLWEARRTLSSMGLKVLDDGGSGSVTAQMPSAGATLRNGGQMMLYTYDEALPE | 0.133 |
